The values below are quoted from earlier work in article PMC10343017.

The target in one data set is CMG2 (Homo sapiens) (UniProt P58335).
Another data set deals with TEM8 (Homo sapiens) (UniProt Q9H6X2).

Turning to “protective antigen (from UniProt P13423)”, the results for the Kd with CMG2 (Homo sapiens) and with TEM8 (Homo sapiens) were 0.78 nM and 130 nM, respectively.

The Kd is a measure of binding affinity in units of concentration.
